Test results reported in the supplement of paper PMC10567573.
± gives the standard deviation.

Experiment: protein stability index of a GFP-peptide fusion (GPS, HEK-293T) (PSI 1-6); higher = more stable
[1] = treatment: DMSO, c terminus: a fixed tail appended
[2] = treatment: MLN4924 1 uM, 8 h, c terminus: a fixed tail appended
[3] = treatment: DMSO, c terminus: native
[4] = treatment: MLN4924 1 uM, 8 h, c terminus: native
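Further: 24-mer peptide tiles fused after GFP, lentivirally expressed, FACS-sorted into six equal bins by GFP/DsRed ratio, decoded by Illumina sequencing, PSI is the read-weighted mean bin number.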

Row | Sequence | protein stability index [1] | protein stability index [2] | protein stability index [3] | protein stability index [4]
1 | AAHLKLTSIEEGYERSFIHKIKHK [IQUB] | 3.18 ± 0.24 | 3.2 ± 0.2 | – | –
2 | AALTRMRAESTANAGQSDNRSLAE [ANKRD17] | 4.79 ± 0.14 | 4.81 ± 0.15 | – | –
3 | AAPAGSLSRKKRLELDDNLDTERP [TRIB3] | 5.25 ± 0.33 | 5.27 ± 0.14 | – | –
4 | AATRGGSHLQAAAQTPPRPGPPSA [SCNN1D] | 4.93 ± 0.21 | 4.84 ± 0.1 | – | –
5 | AAWKGRVLLPETQKRQQLSEDTLT [C22orf31] | 3.83 ± 0.31 | 3.84 ± 0.38 | – | –
6 | ACGIEHCSVHYVSDSGDGVYAGRP [FBXO34] | 2.25 ± 0.29 | 2.84 ± 1.1 | – | –
7 | ADACDIDEIEEVPTTSHRLSRHDK [NETO1] | 5.59 ± 0.17 | 5.45 ± 0.17 | – | –
8 | ADDFRTKYEHELALRQTVEADVNG [KRT16] | 5.17 ± 0.38 | 5.09 ± 0.034 | – | –
9 | ADLLLLTDLKTLCCEFLEGCIAAE [GAN] | 2.15 ± 0.42 | 2.16 ± 0.58 | – | –
10 | ADLRTNHTLNNLVEKLLREEAEGA [TRIM35] | 4.32 ± 0.17 | 4.43 ± 0.2 | – | –
11 | AEDKAAVERSKMIDRNLREDGEKA [GNAI1] | 5.691 ± 0.042 | 5.34 ± 0.13 | – | –
12 | AEEEEEEEEEVDLACTPTDVRDVD [CCND1] | 5.53 ± 0.31 | 5.41 ± 0.34 | – | –
13 | AEEGWSPTPKCLRLCFFPFVENGH [CFHR2] | 1.96 ± 0.28 | 2.12 ± 0.32 | – | –
14 | AEISQPPALSQLVNLYLGRSHFLW [TCF25] | 2.67 ± 0.23 | 2.73 ± 0.44 | – | –
15 | AEKNCMTFFEVSPLCNFNVIESFT [RAB40C] | 2.3 ± 0.64 | 2.02 ± 0.24 | – | –
16 | AELEQHLEQEQEFQVNKLMKKIKK [CCDC6] | 4.61 ± 0.26 | 5.13 ± 0.38 | – | –
17 | AESFPGSQVMGSGRGSLSSGGQTS [PLEKHN1] | 4.81 ± 0.2 | 4.88 ± 0.25 | – | –
18 | AFDKKVLKFDAYFQEDVPMSTEEQ [EFHC1] | 4.71 ± 0.17 | 4.73 ± 0.18 | – | –
19 | AFPQTPFKTGNSTATCTTNNNPNS [KCNA3] | 4.61 ± 0.4 | 4.62 ± 0.17 | – | –
20 | AGLFSQEQYERNKSSSSSSSSSSS [TMEM40] | 5.16 ± 0.083 | 5.32 ± 0.2 | – | –
21 | AGRIDREELCAQSARCVVSFNILV [PCDHGA10] | 2.45 ± 1.1 | 2.37 ± 0.61 | – | –
22 | AIMCVSCICWSPFLVTMANIGING [PTGFR] | 3.42 ± 0.095 | 3.71 ± 0.45 | – | –
23 | AIQGISEKEKAEIEAKEACDWLRA [DLC1] | 4.69 ± 0.42 | 4.72 ± 0.39 | – | –

Row | Sequence | protein stability index [1] | protein stability index [2] | protein stability index [3] | protein stability index [4]
24 | AISSVERYDPQTNEWRMVASMSKR [KLHL20] | 3.71 ± 0.22 | 3.99 ± 0.21 | – | –
25 | AIVDLISRQYDKFLTHFILMNDVI [FBXO33] | 3.1 ± 0.45 | 3.36 ± 0.28 | – | –
26 | AKEEGGEEVAKAVLEQEETAAASR [EPB41L3] | 5.47 ± 0.37 | 5.79 ± 0.095 | – | –
27 | ALATLRVLRGLARPEHPPPAPTGQ [TMEM175] | 3.09 ± 0.22 | 3.09 ± 0.39 | – | –
28 | ALDNESWGFVHPRLLSVPELCHHV [RETREG3] | 2.65 ± 0.42 | 2.46 ± 0.23 | – | –
29 | ALEFQPQLVLVAAGFDALQGDPKG [HDAC6] | 2.86 ± 0.28 | 3.11 ± 0.47 | – | –
30 | ALELLGATFVDKKRDLLGALKYWK [FEM1C] | 2.25 ± 0.37 | 2.52 ± 0.86 | – | –
31 | ALGHLGNDDSADYQHFLQDCVDGL [DLC1] | 4.26 ± 0.17 | 4.28 ± 0.46 | – | –
32 | ALILHQRIHSGEKPYGCVECGKAF [ZNF24] | 2.17 ± 0.052 | 2.5 ± 0.4 | – | –
33 | ALNQEFLATRSNEKQELQELNDRF [PRPH] | 4.24 ± 0.19 | 4.38 ± 0.22 | – | –
34 | AMEYAPGGTLAEFIQKRCNSLLEE [NEK8] | 3.56 ± 0.36 | 3.3 ± 0.29 | – | –
35 | AMVLELLGPSLEDLFDLCDRTFTL [CSNK1G1] | 2.52 ± 1.4 | 1.53 ± 0.14 | – | –
36 | ANFHLNDLEAPHEDDAEGEGEWD [TCF25] | – | – | 5.63 ± 0.14 | 5.39 ± 0.22
37 | ANIEEVLQRGEALSALDSKANNLS [SEC22B] | 4.94 ± 0.16 | 4.89 ± 0.18 | – | –
38 | ANLKQVKKEDTEKERDLRDVGDWR [TNNI2] | 5.33 ± 0.076 | 4.96 ± 0.24 | – | –
39 | ANYVIVRAYQYTTLTSVQLLDCFG [SLC35F2] | 3.21 ± 0.26 | 3.03 ± 0.49 | – | –
40 | APDPELAAEMYQRGRAVLREAGFH [RSAD1] | 3.92 ± 0.32 | 4.07 ± 0.22 | – | –
41 | APEIDPSSDGSNFGWETKIKAWMD [KMT2E] | 4.21 ± 0.41 | 4.36 ± 0.25 | – | –
42 | APKVNAVDTLNVKDIAPEKQLLNS [DLC1] | 4.88 ± 0.2 | 4.82 ± 0.35 | – | –
43 | APPPLKDDPEGDRDGCVITKVLL [ZBED3] | – | – | 5.4 ± 0.25 | 5.43 ± 0.4
44 | APPTPPEEEDLRRRLKYFFMSPCD [MCOLN1] | 4.27 ± 0.23 | 4.15 ± 0.23 | – | –
45 | APQHPQPGSQALPAPALAPDQLPQ [FBXO28] | 5.13 ± 0.32 | 5.04 ± 0.29 | – | –
46 | APSLEAPKPSGLEPGPAAYGLKPL [KCTD13] | 4.45 ± 0.25 | 4.58 ± 0.1 | – | –

Row | Sequence | protein stability index [1] | protein stability index [2] | protein stability index [3] | protein stability index [4]
47 | APSPQEALVRLRETEEMLGKKQEY [CHMP4C] | 5.26 ± 0.25 | 5.12 ± 0.096 | – | –
48 | APTMLHNSSGDFSQAHSTLKLANH [TRAF3IP2] | 4.02 ± 0.19 | 4.18 ± 0.34 | – | –
49 | APTPPSLSQRVMCNDLFKVNPFQL [TIAF1] | 2.11 ± 0.25 | 2.25 ± 0.28 | – | –
50 | AQLQDFVRAKGSQSGRHLQTHSNT [STX5] | 4.13 ± 0.08 | 4.24 ± 0.15 | – | –
51 | AQPNTMLGRMFGSGREHNFTRPNE [BTBD10] | 3.74 ± 0.53 | 3.61 ± 0.39 | – | –
52 | AQRLRPQDEPRQGCQPEDRRRRII [KCNG1] | 4.92 ± 0.23 | 4.9 ± 0.1 | – | –
53 | ARLQEPVTFRDVAVDFTQEEWGQL [ZNF8] | 4.13 ± 0.2 | 4.07 ± 0.22 | – | –
54 | ASGKLRKKKKKQKNKKSSTGEASE [TCF25] | 4.9 ± 0.23 | – | – | –
55 | ASGVGFILGPVVGGYLTELEDGFY [MFSD9] | 2.05 ± 0.62 | 2.17 ± 0.23 | – | –
56 | ASHLGNELEGTEELCCVAELDNPM [C2CD2L] | 5.2 ± 0.23 | 5.25 ± 0.18 | – | –
57 | ASHTVGFTPPTSLTRAGMSYYNSP [CCDC6] | 2.82 ± 0.44 | 3.18 ± 0.21 | – | –
58 | ASKGCQLGKTEQGFENMDFFTLDL [TRIM63] | 3.22 ± 0.19 | 3.22 ± 0.31 | – | –
59 | ASLGDVQSGATISMPCSTDKENGE [SASS6] | 5.69 ± 0.17 | 5.62 ± 0.23 | – | –
60 | ATRAMGLLNTLSLAFVGGLPLAYQ [TMEM175] | 3.11 ± 0.32 | 2.99 ± 0.56 | – | –
61 | ATSRTDREIKVTLVFEHVDQDLRT [CDK4] | 2.2 ± 0.3 | 2.26 ± 0.41 | – | –
62 | AVEAELKSSTVGLVTLNDMKAKQE [FAM50A] | 5.21 ± 0.2 | 5.25 ± 0.13 | – | –
63 | AVFRFWAGGEKGPQAFPMSRLWDS [DNAAF3] | 2.14 ± 0.26 | 2.18 ± 0.22 | – | –
64 | AVQDHGQPPLSATVTLTVAVADSI [PCDHGA10] | 2.83 ± 0.22 | 2.98 ± 0.34 | – | –
65 | AVSVMKKCRKLEDPQSSSQVTTS [SLC19A2] | – | – | 4.36 ± 0.23 | 4.37 ± 0.19
66 | AVWGQCQVRIRYLGERRAEPHSLL [SPSB2] | 2.26 ± 0.23 | 2.19 ± 0.28 | – | –
67 | AVYFAEAEEAESHFSSIPDAFWWA [KCNA1] | 2.27 ± 0.4 | 2.53 ± 0.42 | – | –
68 | AVYLMTFLIVTVAWAAHTRLFQVV [TMEM175] | 3.17 ± 0.097 | 3.18 ± 0.2 | – | –
69 | CESDIWALGCVMYTMLLGRPPFET [PLK2] | 3.72 ± 0.55 | 3.59 ± 0.71 | – | –

Row | Sequence | protein stability index [1] | protein stability index [2] | protein stability index [3] | protein stability index [4]
70 | CGQPCSQKSGLIRHQKIHSGEKPY [ZNF649] | 3.02 ± 0.5 | 3.21 ± 0.28 | – | –
71 | CHLTPSIYTEFPDETLRSGELLNM [INTS3] | 3.04 ± 0.17 | 2.99 ± 0.24 | – | –
72 | CLAKGTFSDVTFILDDGTISAHKP [RHOBTB2] | 2.36 ± 0.27 | 2.46 ± 0.17 | – | –
73 | CMDQERLRRESTSQKEMDKAETKT [FCHO1] | 5.15 ± 0.65 | 5.21 ± 0.14 | – | –
74 | CPHCGDRTFYDPEPILCPCFMPN [PRAME] | – | – | 3.98 ± 0.25 | 3.99 ± 0.48
75 | CPWEPQKQPPWEFLQVLEPGARGL [SPAG8] | 3.11 ± 0.24 | 3.36 ± 0.11 | – | –
76 | CQALPYGPGYWMCCHRSQKGFPGC [FBXO34] | 2.35 ± 0.44 | 2.23 ± 0.32 | – | –
77 | CRKAKEIRKERKRLKLMQQNPAGE [ATE1] | 4 ± 0.25 | 4.37 ± 0.2 | – | –
78 | CSGVACLVKDNPQRSYFLRIFDIK [WASL] | 2.16 ± 0.34 | 2.27 ± 0.7 | – | –
79 | CSQGQQLATFSSDWEIQEDSRLMC [CCDC3] | 3.16 ± 0.073 | 3.03 ± 0.55 | – | –
80 | CTLPQLAIAWCLRNEGVSSVLLGA [KCNAB2] | 3.1 ± 0.63 | 2.89 ± 0.36 | – | –
81 | DAERDGVKVPTTLAEYCVKTKAPA [CDC34] | 5.13 ± 0.067 | 5.02 ± 0.26 | – | –
82 | DALRFTADVRSVLSRNLHQHRLW [CTDNEP1] | – | – | 2.6 ± 0.48 | 2.99 ± 0.26
83 | DDCSSTIVEDPQTKCEYMLNSMPK [ESRRG] | 4.87 ± 0.29 | 4.95 ± 0.22 | – | –
84 | DDFRTKYQTEQSLRQLVESDINSL [KRT33B] | 4.6 ± 0.2 | 4.39 ± 0.12 | – | –
85 | DDGTYSQVQCHSYTGYCWCVTPNG [SMOC2] | 2.48 ± 0.14 | 2.66 ± 0.47 | – | –
86 | DEALAIAALELLPRELFPPLFMAA [PRAME] | 2.78 ± 0.21 | 2.61 ± 0.55 | – | –
87 | DEALERCQILELLNAELEEKMMQE [CCDC89] | 5.17 ± 0.41 | 5.34 ± 0.22 | – | –
88 | DEIRWKYHSDTTPKIIESQRPPH [IQUB] | – | – | 4.25 ± 0.36 | 4.09 ± 0.29
89 | DERIFSLTRRLAHGEELRVSARSR [HAGHL] | 4.1 ± 0.33 | 4.12 ± 0.32 | – | –
